# In article PMC7954794, “Protein context shapes the specificity of SH3 domain-mediated interactions in vivo” (Nature Communications, 2021):
# B1: S. cerevisiae Abp1 (full length; SH3 domain 535-592 mutated) / Hua2 (parent)
# chain 1: MALEPIDYTTHSREIDAEYLKIVRGSDPDTTWLIISPNAKKEYEPESTGSSFHDFLQLFDETKVQYGLARVSPPGSDVEKIIIIGWCPDSAPLKTRASFAANFAAVANNLFKGYHVQVTARDEDDLDENELLMKISNAAGARYSIQTSSKQQGKASTPPVKKSFTPSKSPAPVSKKEPVKTPSPAPAAKISSRVNDNNDDDDWNEPELKERDFDQAPLKPNQSSYKPIGKIDLQKVIAEEKAKEDPRLVQKPTAAGSKIDPSSDIANLKNESKLKRDSEFNSFLGTTKPPSMTESSLKNDDDKVIKGFRNEKSPAQLWAERKAKQNSGNAETKAEAPKPEVPEDEPEGEPDVKDLKSKFEGLAASEKEEEEMENKFAPPPKKSEPTIISPKPFSKPQEPVKAEEAEQPKTDYKKIGNPLPGMHIEADNEEEPEENDDDWDDDEDEAAQPPLPSRNVASGAPVQKEEPEQEEIAPSLPSRNSIPAPKQEEAPEQAPEEEIEEEAEEAAPQLPSRSSAAPPPPPRRATPEKKPKENPWATAEYDYDAAEDNELTFVENDKIINIEFVDDDWWLGELEKDGSKGLFPSNYVSLGN
# chain 2: MQQTKFGKMYLDHDSVVEYSEDEIVEADRITLGYKKRLSMIENQMRHLLEDFSLDVQQIEPILADLQKYYDAFLQLLQKRNKSLQCKRSTHQPVPSPMNSQTSTNAKVNLSGKLMKFQLNSVQKFDEENILRILQNKIEFEHYFQIDKGKKQKVLLLAVYQCLNGPTRLHKVLNIEGIIHNNSIRTILGKQVSSSKWTVFLYDVKLVLLAHRQDVPNLETSKMIVRYGDLFPCALYFKDHTAY
# Variants of: B1
# Assay: DHFR protein-fragment complementation in yeast (Abp1-DHFR F[1,2] x partner-DHFR F[3]), deep mutational scanning, second methotrexate selection vs reference
# Details: with Hua2; S. cerevisiae, DHFR-PCA selection in liquid with methotrexate at 30 C, two 72 h selections (the score uses the second); reference = the pre-selection culture; value at the no-binding floor (a bound); scale: DMS score: mean over two replicates of log2(f_test/f_ref + 0.5)/ln 2, minus the synonymous-codon median
row,screen value,Variant
1,< -3.06,chain 1 D567C
2,-3.03,chain 1 D567K
3,-3,chain 1 D567T
4,< -3.06,chain 1 D567P
5,< -3.06,chain 1 D567R
6,-3.02,chain 1 D567S
7,< -3.06,chain 1 D567I
8,-2.99,chain 1 W569M
9,-3.02,chain 1 W569K
10,-3.01,chain 1 D568Q
11,< -3.06,chain 1 D568R
12,< -3.06,chain 1 D568L
13,< -3.06,chain 1 D568I
14,< -3.06,chain 1 D568M
15,< -3.06,chain 1 D568K
16,-2.99,chain 1 N586R
17,-3.04,chain 1 E547R
18,< -3.06,chain 1 S585Q
19,< -3.06,chain 1 D566C
20,< -3.06,chain 1 D566S
21,-2.99,chain 1 D566F
22,-3.03,chain 1 D566R
23,-3.01,chain 1 Y541R

# Same assay, conditions: with Hua2; S. cerevisiae, DHFR-PCA selection in liquid with methotrexate at 30 C, two 72 h selections (the score uses the second); reference = the pre-selection culture; not an affinity; value at the no-binding floor (a bound); scale: DMS score: mean over two replicates of log2(f_test/f_ref + 0.5)/ln 2, minus the synonymous-codon median
row,screen value,Variant
1,-3.03,chain 1 L574F
2,< -3.06,chain 1 L574E
3,-3.03,chain 1 L574W
4,< -3.06,chain 1 L574D
5,-2.98,chain 1 K580P
6,-3,chain 1 I559E
7,< -3.06,chain 1 I559P
8,< -3.06,chain 1 I559Q
9,< -3.06,chain 1 I559A
10,-3.01,chain 1 I559C
11,-3.04,chain 1 I559D
12,-3.05,chain 1 I559G
13,< -3.06,chain 1 I559H
14,< -3.06,chain 1 I559W
15,-3.03,chain 1 I559R
16,< -3.06,chain 1 I559K
17,-2.99,chain 1 W569I
18,-3.05,chain 1 W569H
19,< -3.06,chain 1 W569A
20,-3.03,chain 1 W569D
21,< -3.06,chain 1 W569T
22,< -3.06,chain 1 W569P
23,< -3.06,chain 1 W569N
24,-2.99,chain 1 W569S
25,-3.02,chain 1 P584C

row,screen value,Variant
1,-3,chain 1 P584F
2,< -3.06,chain 1 P584K
3,< -3.06,chain 1 P584M
4,< -3.06,chain 1 P584V
5,< -3.06,chain 1 P584E
6,-3.02,chain 1 P584W
7,< -3.06,chain 1 P584I
8,< -3.06,chain 1 P584G
9,-3.01,chain 1 P584Q
10,< -3.06,chain 1 P584D
11,-3.02,chain 1 G572A
12,< -3.06,chain 1 G572D
13,< -3.06,chain 1 G572P
14,-3.04,chain 1 G572T
15,< -3.06,chain 1 G572C
16,< -3.06,chain 1 G572H
17,-3.04,chain 1 G572L
18,< -3.06,chain 1 G572F
19,< -3.06,chain 1 G572M
20,< -3.06,chain 1 G572S
21,< -3.06,chain 1 G572Q
22,< -3.06,chain 1 G572I
23,< -3.06,chain 1 G572Y
24,< -3.06,chain 1 G572K
25,-3.02,chain 1 G581E

row,screen value,Variant
1,< -3.06,chain 1 G581W
2,< -3.06,chain 1 G581H
3,< -3.06,chain 1 G581N
4,< -3.06,chain 1 G581Q
5,< -3.06,chain 1 G581T
6,< -3.06,chain 1 G581P
7,< -3.06,chain 1 G581L
8,< -3.06,chain 1 G581I
9,< -3.06,chain 1 G581M
10,-3.01,chain 1 G581F
11,-3.01,chain 1 G581K
12,< -3.06,chain 1 G581Y
13,< -3.06,chain 1 T552W
14,-3.04,chain 1 T552L
15,< -3.06,chain 1 I562Q
16,-3.03,chain 1 I562Y
17,< -3.06,chain 1 I562R
18,-3.04,chain 1 I562G
19,< -3.06,chain 1 I562A
20,< -3.06,chain 1 I562E
21,< -3.06,chain 1 I562H
22,-3.03,chain 1 I562K
23,< -3.06,chain 1 I562D
24,< -3.06,chain 1 I562P
25,< -3.06,chain 1 F583T

row,screen value,Variant
1,< -3.06,chain 1 F583M
2,< -3.06,chain 1 F583N
3,< -3.06,chain 1 F583E
4,< -3.06,chain 1 F583W
5,< -3.06,chain 1 F583H
6,< -3.06,chain 1 F583G
7,-3.02,chain 1 F583R
8,< -3.06,chain 1 F583P
9,< -3.06,chain 1 F583D
10,< -3.06,chain 1 F583Q
11,< -3.06,chain 1 F583K
12,< -3.06,chain 1 L590D
13,-3.05,chain 1 L590G
14,< -3.06,chain 1 L590N
15,-3.04,chain 1 V554P
16,< -3.06,chain 1 W570H
17,-3.03,chain 1 W570E
18,< -3.06,chain 1 W570A
19,-3.02,chain 1 W570M
20,< -3.06,chain 1 W570P
21,< -3.06,chain 1 W570I
22,-3.02,chain 1 W570V
23,< -3.06,chain 1 W570T
24,-3.01,chain 1 W570Q
25,< -3.06,chain 1 W570K

row,screen value,Variant
1,< -3.06,chain 1 W570D
2,-2.99,chain 1 S585F
3,< -3.06,chain 1 S585Y
4,-3.01,chain 1 S585W
5,-3.03,chain 1 S585D
6,-2.99,chain 1 S585L
7,-3,chain 1 L582G
8,-3.03,chain 1 L582E
9,-3.04,chain 1 L582A
10,-2.99,chain 1 L582D
11,-3.01,chain 1 L582T
12,< -3.06,chain 1 G578I
13,-3.01,chain 1 G578W
14,< -3.06,chain 1 G578P
15,< -3.06,chain 1 L551G
16,< -3.06,chain 1 L551Y
17,< -3.06,chain 1 L551W
18,-2.98,chain 1 L551H
19,< -3.06,chain 1 L551K
20,< -3.06,chain 1 L551D
21,< -3.06,chain 1 L551S
22,-3.04,chain 1 L551A
23,< -3.06,chain 1 I560P
24,-3.02,chain 1 N561V
25,-3.02,chain 1 N561L

row,screen value,Variant
1,< -3.06,chain 1 N561P
2,< -3.06,chain 1 N561F
3,< -3.06,chain 1 N561W
4,-3.01,chain 1 Y543T
5,-3.04,chain 1 Y543G
6,< -3.06,chain 1 Y543A
7,-3.02,chain 1 Y543L
8,< -3.06,chain 1 Y543E
9,< -3.06,chain 1 Y543V
10,< -3.06,chain 1 Y543P
11,-3.05,chain 1 Y543R
12,< -3.06,chain 1 Y543I
13,< -3.06,chain 1 Y543M
14,< -3.06,chain 1 V588N
15,-3.02,chain 1 V588Q
16,< -3.06,chain 1 V588H
17,< -3.06,chain 1 V588R
18,< -3.06,chain 1 V588S
19,-3.04,chain 1 V588K
20,< -3.06,chain 1 V588Y
21,< -3.06,chain 1 V588P
22,< -3.06,chain 1 Y541P
23,-2.98,chain 1 Y587E
24,-3,chain 1 Y587G
25,< -3.06,chain 1 Y587P
